B1: VapC toxin of Salmonella enterica serovar Typhimurium LT2 (enzyme)
chain: MLKFMLDTNTCIFTIKNKPEHIRERFNLNTSRMCISSITLMELIYGAEKSLAPERNLAVVEGFISRLEVLDYDTQAAIHTGQIRAELARKGTPVGPYDQMIAGHAGSRGLVVVTNNLREFERIPGIRIEDWC

Data set [1] concerns the molecule itself.
Data set [2] concerns the target B1. Briefly: native gel or EMSA. A general note: In EMSA bound probe runs differently from free probe, usually more slowly.
In the next data set the target is T1, VapC Y72A variant (Salmonella enterica serovar Typhimurium …, UniProt Q8ZM86 1-132, Y72A).
T1 sequence: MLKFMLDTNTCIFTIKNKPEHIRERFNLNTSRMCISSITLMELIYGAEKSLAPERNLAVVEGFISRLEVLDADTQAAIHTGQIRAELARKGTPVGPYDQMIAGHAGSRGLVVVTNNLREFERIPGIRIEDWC
Briefly: native gel or EMSA.

The target in another data set is T2, VapC L43A variant (Salmonella enterica serovar Typhimurium …, UniProt Q8ZM86 1-132, L43A).
T2 sequence: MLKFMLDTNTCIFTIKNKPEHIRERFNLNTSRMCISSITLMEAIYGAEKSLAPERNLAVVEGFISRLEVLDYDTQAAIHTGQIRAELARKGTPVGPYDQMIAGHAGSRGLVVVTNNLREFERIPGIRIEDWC
Briefly: native gel or EMSA.

The target in a further data set is T3, VapC I44A variant (Salmonella enterica serovar Typhimurium …, UniProt Q8ZM86 1-132, I44A).
T3 sequence: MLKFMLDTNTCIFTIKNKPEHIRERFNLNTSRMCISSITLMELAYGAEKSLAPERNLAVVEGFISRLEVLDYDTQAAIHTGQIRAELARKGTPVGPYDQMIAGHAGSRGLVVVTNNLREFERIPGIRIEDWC
The data set can be described thus: native gel or EMSA.

For the next data set, the target named is T4, VapC A76S variant (Salmonella enterica serovar Typhimurium …, UniProt Q8ZM86 1-132, A76S).
T4 sequence: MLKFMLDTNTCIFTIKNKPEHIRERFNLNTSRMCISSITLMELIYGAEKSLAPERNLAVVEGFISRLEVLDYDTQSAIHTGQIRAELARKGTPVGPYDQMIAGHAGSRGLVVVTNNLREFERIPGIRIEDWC
The data set can be described thus: native gel or EMSA.

The target of the next data set is T5, VapB;VapC (Salmonella enterica serovar Typhimurium …, UniProt Q7CPV2;Q8ZM86 1-75;1-132, |).
T5 sequence 1: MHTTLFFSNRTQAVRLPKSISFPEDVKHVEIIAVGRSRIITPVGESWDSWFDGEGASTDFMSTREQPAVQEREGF
T5 sequence 2: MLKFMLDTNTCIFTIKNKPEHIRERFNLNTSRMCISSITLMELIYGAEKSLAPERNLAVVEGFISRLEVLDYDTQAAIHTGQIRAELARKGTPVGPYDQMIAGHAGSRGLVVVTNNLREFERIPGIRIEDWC
Briefly: EMSA.

Turning to B1, the stoichiometry N (usually the number of molecules, sites or subunits per partner or assembly) in data set [1] was 2.

B2: VapB antitoxin of Salmonella enterica serovar Typhimurium LT2 (natural protein, UniProt Q7CPV2 1-75, looked up)
chain: MHTTLFFSNRTQAVRLPKSISFPEDVKHVEIIAVGRSRIITPVGESWDSWFDGEGASTDFMSTREQPAVQEREGF
As for B2, the binding result (in data set [2]; with VapC Y72A variant; in the data set with VapC L43A variant; with VapC I44A variant; with VapC A76S variant) was “binds” throughout.

B3: vapO1, 36 bp (dsDNA)
DNA 1: CTCATAATGGATATACGCGTTGTATATCCAGAAAGG
DNA 2: CCTTTCTGGATATACAACGCGTATATCCATTATGAG
On to B3, for which, in the data set with VapB;VapC, the binding result is “binds”.

(Values after publication PMC3378870 (Nucleic Acids Research, 2012).)
